From patent US20120003670A1 (BLOOD CENTER RESEARCH FOUNDATION, published 2012) come the findings set out here.

Numbering of substitutions follows the chain as printed. In names and notes the source's numbering stands.

The labels stand for the following.
B1: GPIbα D235Y, full-length, on transfected HEK-293T cells (receptor)
chain: HPICEVSKVASHLEVNCDKRNLTALPPDLPKDTTILHLSENLLYTFSLATLMPYTRLTQLNLDRCELTKLQVDGTLPVLGTLDLSHNQLQSLPLLGQTLPALTVLDVSFNRLTSLPLGALRGLGELQELYLKGNELKTLPPGLLTPTPKLEKLSLANNNLTELPAGLLNGLENLDTLLLQENSLYTIPKGFFGSHLLPFAFLHGNPWLCNCEILYFRRWLQDNAENVYVWKQGVYVKAMTSNVASVQCDNSDKFPVYKYPGKGCPTLGDEGDTDLYDYYPEEDTEGDKVRATRTVVKFPTKAHTTPWGLFYSWSTASLDSQMPSSLHPTQESTKEQTTFPPRWTPNFTLHMESITFSKTPKSTTEPTPSPTTSEPVPEPAPNMTTLEPTPSPTTPEPTSEPAPSPTTPEPTSEPAPSPTTPEPTPIPTIATSPTILVSATSLITPKSTFLTTTKPVSLLESTKKTIPELDQPPKLRGVLQGHLESSRNDPFLHPDFCCLLPLGFYVLGLFWLLFASVVLILLLSWVGHVKPQALDSGQGAALTTATQTTHLELQRGRQVTVPRAWLLFLRGSLPTFRSSLFLWVRPNGRVGPLVAGRRPSALSQGRGQDLLSTVSIRYSGHSL
notes: Some cells were also transfected with GPIbβ and GP-IX; also called single mutation D235Y
B2: GPIbα G233V, full-length, on transfected HEK-293T cells (receptor)
chain: B1 chain with G233V, Y235D
notes: Some cells were also transfected with GPIbβ and GP-IX; also called single mutation G233V
B3: GPIbα D235Y/M239V, full-length, on transfected HEK-293T cells (receptor)
chain: B1 chain with M239V
notes: Some cells were also transfected with GPIbβ and GP-IX; also called double mutation D235Y/M239V
B4: GPIbα G233V/M239V, full-length, on transfected HEK-293T cells (GPIbα alone in Table 2) (receptor)
chain: B1 chain with G233V, Y235D, M239V
notes: also called double mutation G233V/M239V
B5: GPIbα M239V, full-length, on transfected HEK-293T cells (receptor)
chain: B1 chain with Y235D, M239V
notes: Some cells were also transfected with GPIbβ and GP-IX; also called single mutation M239V
B6: GPIbα G233V/D235Y, full-length, on transfected HEK-293T cells (receptor)
chain: B1 chain with G233V
notes: Some cells were also transfected with GPIbβ and GP-IX; also called double mutation G233V/D235Y
B7: GPIbα G233V/D235Y/M239V, full-length, on transfected HEK-293T cells (receptor)
chain: B1 chain with G233V, M239V
notes: Some cells were also transfected with GPIbβ and GP-IX; also called triple mutation; triple GPIbα mutation
B8: wild-type GPIbα (SEQ ID NO:11), full-length, on transfected HEK-293T cells (receptor)
chain: B1 chain with Y235D
notes: also called wild-type control

One test has as its target T1, von Willebrand factor (VWF) in plasma of reference standards, controls and normal individuals (human, UniProt P04275 764-2813).
T1 construct: In the assays VWF was the multimeric protein in diluted platelet poor plasma; also called PPP (source of VWF); ISTH 2
In words: FACS on transfected HEK-293T cells, ristocetin titration. How it is done: (§1) For FACS, about 50 μl of a 1:10 dilution of platelet poor plasma (PPP; source of VWF) in assay buffer was added to the plate and serially diluted 1:2 to final dilution of 1:80. ISTH Lot #3 (GTI; Milwaukee, Wis.) was used as a standard and diluted 1:10 in assay buffer and serially diluted 1:2 to a final dilution of 1:320. The plate was then incubated for one hour at room temperature. After the one-hour incubation, the plate was centrifuged again at 1200 rpm for 5 minutes and the supernatant was discarded.
(§2) In some experiments, the PPP was diluted in PBS containing 1% BSA and either 1 mg/ml Ristocetin A (American Biochemical & Pharmaceuticals, Ltd.; Marlton, N.J.) or 1 mg/ml Botrocetin (Sigma Aldrich).
(§3) Fluorescently labeled antibodies (anti-GPIbα; Blood Research Institute) were diluted to a final concentration of 5 μg/ml in assay buffer. Fluorescently labeled anti-VWF polyclonal was also was diluted to a final concentration of 5 μg/ml in assay buffer and added to transfected cells incubated in PPP. Normal rabbit IgG (NRIgG; Pierce) and AP-1 were added at a concentration of 5 μg/ml to transfected cells as negative and positive controls, respectively. The plate was then incubated in the dark for one hour at room temperature. Assay buffer was added to each well to bring the final volume to 150 μl, and FACS was performed using a BD LSRII System (Becton Dickinson). Results are shown in VWF:IbCo units.
As to B1, the binding result is given as “binds”. On the same count and under the same terms, next, B2: “binds”; B3: “binds”.

Regarding B4, the binding result is reported as “binds”.

As for B5, the binding result is given as “binds”. Same read-out and setting: to B6 belongs “binds”; to B7, “binds”.

The target of a further test is T1, von Willebrand factor (VWF) in plasma …. In words: FACS on transfected HEK-293T cells, with ristocetin or botrocetin. How it is done:
as §1, §2
as §3, with “Results are shown in VWF:IbCo units.” left out
As to B8, the binding result is given as “binds”.
